Measurements as given in publication PMC3580387.

Molecular target: mCherry-Actin (UniProt P60709)
Assay: FRET or BRET

| Substance | mean E% (FRET efficiency), Case 1 ROIs [%] | mean E% (FRET efficiency), Case 2 ROIs [%] | mean E% (FRET efficiency), Case 3 ROIs [%] | mean E% (FRET efficiency), Case 4 ROIs [%] |
| --- | --- | --- | --- | --- |
| Venus-IQGAP1 (Venus fused to human IQGAP1) (from UniProt P46940 1-1657) (natural protein) | 29.6 | 25.4 | 39.3 |  |
| TFP-N-WASP (Teal fluorescent protein fused to human N-WASP) (from UniProt O00401 1-505) (natural protein) | 20.3 | 27.9 |  | 25.2 |
